Results as given in US20240059759A1.
Like-named read-outs stand apart in the source and are kept apart here.

How the values were obtained:
[1] = biological target: SARS-CoV-2 Spike RBD-His Tag, Sino Biological (SARS-CoV-2)
[2] = biological target: SARS-CoV-2 Spike RBD-His Tag, Sino Biological (SARS-CoV-2); remark: listed apart in the source
[3] = biological target: SARS-CoV-2 Spike RBD-His Tag, Sino Biological (SARS-CoV-2); remark: listed apart in the source
[4] = biological target: SARS-CoV-2 Spike RBD-His Tag, Sino Biological (SARS-CoV-2); remark: listed apart in the source
[5] = biological target: CoV-2 (SARS-CoV-2)
[6] = biological target: CoV-2 (SARS-CoV-2); remark: listed apart in the source
[7] = biological target: CoV-2 (SARS-CoV-2); remark: listed apart in the source
[8] = biological target: SARS-CoV-2 Spike RBD-His Tag, Sino Biological (SARS-CoV-2); remark: listed apart in the source
[9] = biological target: SARS-CoV-2 Spike RBD-His Tag, Sino Biological (SARS-CoV-2); remark: listed apart in the source
[10] = biological target: CoV-2 (SARS-CoV-2); remark: listed apart in the source
[11] = biological target: SARS-CoV-2 Spike RBD-His Tag, Sino Biological (SARS-CoV-2); remark: listed apart in the source
[12] = biological target: SARS-CoV-2 Spike RBD-His Tag, Sino Biological (SARS-CoV-2); remark: listed apart in the source
[13] = biological target: CoV-2 (SARS-CoV-2); remark: listed apart in the source
[14] = biological target: SARS-CoV-2 Spike RBD-His Tag, Sino Biological (SARS-CoV-2); remark: listed apart in the source
[15] = biological target: SARS-CoV-2 Spike RBD-His Tag, Sino Biological (SARS-CoV-2); remark: listed apart in the source
[16] = biological target: SARS-CoV-2 Spike RBD-His Tag, Sino Biological (SARS-CoV-2); remark: listed apart in the source
[17] = biological target: SARS-CoV-2 Spike RBD-His Tag, Sino Biological (SARS-CoV-2); remark: listed apart in the source

B1: vhh_tstrep_sars2_pjl1_L_85 (VHH)
VHH: QVQLQESGGGLVQAGGSLRLSCAASGRTFSEYAMGWFRQAPGKEREFVATISWSGGATYYTDSVKGRFTISRDNAKNTVYLQMNSLKPDDTAVYYCAAAGLETVVSEWDYDYDYWGQGTQVTVSS
xmid (log10) [1]: -1.05
xmid (log10) [2]: -0.815

B2: vhh_tstrep_sars2_pjl1_L_120 (VHH)
VHH: QVQLQESGGGLVQAGGSLRLSCAASGRTFSEYAMGWFRQAPGKEREFVATISWSGGATYHTDSVDGRFTISRDNAKNTVYLQMNSLKPDDTAVYYCAAAGLGTVVSEWDYDYDYWGQGTQVTVSS
xmid (log10) [3]: -0.493
xmid (log10) [4]: -0.0348

B3: vhh_tstrep_sars2_pjl1_L_22 (VHH)
VHH: QVQLQESGGGLVQAGGSLRLSCAASGRTFSEYAMGWFRQAPGKEREFVATISASGGSTYYTDSVKGRFTISRDNAKNTVYLQMNSLKPDDTAVYYCAAAGLGTVVSEWDYDYDYWGQGTQVTVSS
xmid (log10) [5]: 0.688
xmid (log10) [6]: 1.08
xmid (log10) [7]: 0.892

B4: vhh_tstrep_sars2_pjl1_L_137 (VHH)
VHH: QVQLQESGGGLVQAGGSLRLSCAASGRTFSEYAMGWFRQAPGKEREFVATISWSGGATYHTDSVKGRFTISRDNAKNTVYLQMNSLKPDDTAVYYCAAAGLGTVVSAWDYDYDYWGQGTQVTVSS
xmid (log10) [8]: -0.676
xmid (log10) [9]: -1.3

B5: vhh_tstrep_sars2_pjl1_L_116 (VHH)
VHH: QVQLQESGGGLVQAGGSLRLSCAASGRTFSEYAMGWFRQAPGKEREFVASISWSGGATYHTDSVKGRFTISRDNAKNTVYLQMNSLKPDDTAVYYCAAAGLGTVVSEWDYDYDYWGQGTQVTVSS
xmid (log10) [3]: -0.0157
xmid (log10) [4]: 0.288

B6: vhh_tstrep_sars2_pjl1_L_32 (VHH)
VHH: QVQLQESGGGLVQAGGSLRLSCAASGRTFSEYAMGWFRQAPGKEREFVATISWSGGSTYYTDSVKGRFTISRDNAKNTVYLQMNSLKPDDTAVYYCAAAGLGTVVSAWDYDYDYWGQGTQVTVSS
xmid (log10) [5]: -0.271
xmid (log10) [6]: 0.239
xmid (log10) [7]: 0.532

B7: vhh_tstrep_sars2_pjl1_L_81 (VHH)
VHH: QVQLQESGGGLVQAGGSLRLSCAASGRTFSEYAMGWFRQAPGKEREFVATISWSGGATYYTDSVKGRFTISRDNAKNTVYLQMNSLKPDDTAVYYCAAARLGTVVSEWDYDYDYWGQGTQVTVSS
xmid (log10) [1]: 0.479
xmid (log10) [2]: 1.06

B8: vhh_tstrep_sars2_pjl1_L_38 (VHH)
VHH: QVQLQESGGGLVQAGGSLRLSCAASGRTFSEYAMGWFRQAPGKEREFVATISWSGGSTYYTDSVKGRFTISRDNAKNTVYLQMNSLKPDDTAVYYCAAAGLGTVVSEWAYDYDYWGQGTQVTVSS
xmid (log10) [10]: -0.286
xmid (log10) [6]: 0.0417
xmid (log10) [7]: 0.854

B9: vhh_tstrep_sars2_pjl1_L_82 (VHH)
VHH: QVQLQESGGGLVQAGGSLRLSCAASGRTFSEYAMGWFRQAPGKEREFVATISWSGGATYYTDSVKGRFTISRDNAKNTVYLQMNSLKPDDTAVYYCAAAELGTVVSEWDYDYDYWGQGTQVTVSS
xmid (log10) [1]: 0.155
xmid (log10) [2]: 0.109

B10: vhh_tstrep_sars2_pjl1_L_121 (VHH)
VHH: QVQLQESGGGLVQAGGSLRLSCAASGRTFSEYAMGWFRQAPGKEREFVATISWSGWATYHTDSVKGRFTISRDNAKNTVYLQMNSLKPDDTAVYYCAAAGLGTVVSEWDYDYDYWGQGTQVTVSS
xmid (log10) [11]: -0.224
xmid (log10) [12]: -0.645

B11: vhh_tstrep_sars2_pjl1_L_119 (VHH)
VHH: QVQLQESGGGLVQAGGSLRLSCAASGRTFSEYAMGWFRQAPGKEREFVATESWSGGATYHTDSVKGRFTISRDNAKNTVYLQMNSLKPDDTAVYYCAAAGLGTVVSEWDYDYDYWGQGTQVTVSS
xmid (log10) [11]: 0.385
xmid (log10) [4]: 0.39

B12: vhh_tstrep_sars2_pjl1_L_118 (VHH)
VHH: QVQLQESGGGLVQAGGSLRLSCAASGRTFSEYAMGWFRQAPGKEREFVATISWSGGATGHTDSVKGRFTISRDNAKNTVYLQMNSLKPDDTAVYYCAAAGLGTVVSEWDYDYDYWGQGTQVTVSS
xmid (log10) [11]: 0.784
xmid (log10) [12]: 0.412

B13: vhh_tstrep_sars2_pjl1_L_24 (VHH)
VHH: QVQLQESGGGLVQAGGSLRLSCAASGRTFSEYAMGWFRQAPGKEREFVATISWSGGSTAYTDSVKGRFTISRDNAKNTVYLQMNSLKPDDTAVYYCAAAGLGTVVSEWDYDYDYWGQGTQVTVSS
xmid (log10) [5]: 0.582
xmid (log10) [13]: 0.515
xmid (log10) [7]: 0.908

B14: vhh_tstrep_sars2_pjl1_L_125 (VHH)
VHH: QVQLQESGGGLVQAGGSLRLSCAASGRTFSEYAMGWFRQAPGKEREFVATISWSGGATYHTDSVKGRFTISRDNAKNTVYLQMNSLKPDDTAVYYCAAAGLRTVVSEWDYDYDYWGQGTQVTVSS
xmid (log10) [14]: 0.297
xmid (log10) [4]: 0.108

B15: vhh_tstrep_sars2_pjl1_L_46 (VHH)
VHH: QVQLQESGGGLVQAGGSLRLSCAASGRTFSEYAMGWFRQAPGKEREFVATISWSGGSTYYTDSVKGRFTISRDNAKNTVYLQMNSLKPDDTAVYYCAAAGLGTVVSEADYDYDYWGQGTQVTVSS
xmid (log10) [10]: 1.65

B16: vhh_tstrep_sars2_pjl1_L_123 (VHH)
VHH: QVQLQESGGGLVQAGGSLRLSCAASGRTFSEYAMGWFRQAPGKEREFVATISWIGGATYHTDSVKGRFTISRDNAKNTVYLQMNSLKPDDTAVYYCAAAGLGTVVSEWDYDYDYWGQGTQVTVSS
xmid (log10) [15]: 0.9
xmid (log10) [9]: 0.157

B17: vhh_tstrep_sars2_pjl1_L_135 (VHH)
VHH: QVQLQESGGGLVQAGGSLRLSCAASGRTFSEYAMGWFRQAPGKEREFVATISWSGGATYHTDSVKGRFTISRDNAKNTVYLQMNSLKPDDTAVYYCAAAGLWTVVSEWDYDYDYWGQGTQVTVSS
xmid (log10) [15]: -1.5
xmid (log10) [9]: -1.65

B18: vhh_tstrep_sars2_pjl1_L_128 (VHH)
VHH: QVQLQESGGGLVQAGGSLRLSCAASGRTFSEYAMGWFRQAPGKEREFVATISPSGGATYHTDSVKGRFTISRDNAKNTVYLQMNSLKPDDTAVYYCAAAGLGTVVSEWDYDYDYWGQGTQVTVSS
xmid (log10) [15]: 0.384
xmid (log10) [16]: -0.2

B19: vhh_tstrep_sars2_pjl1_L_124 (VHH)
VHH: QVQLQESGGGLVQAGGSLRLSCAASGRTFSEYAMGWFRQAPGKEREFVATISWSGGGTYHTDSVKGRFTISRDNAKNTVYLQMNSLKPDDTAVYYCAAAGLGTVVSEWDYDYDYWGQGTQVTVSS
xmid (log10) [14]: -1.84
xmid (log10) [12]: -1.89

B20: vhh_tstrep_sars2_pjl1_L_129 (VHH)
VHH: QVQLQESGGGLVQAGGSLRLSCAASGRTFSEYAMGWFRQAPGKEREFVATISWSGGATYHTTSVKGRFTISRDNAKNTVYLQMNSLKPDDTAVYYCAAAGLGTVVSEWDYDYDYWGQGTQVTVSS
xmid (log10) [11]: -1.34
xmid (log10) [16]: -1.34

B21: vhh_tstrep_sars2_pjl1_L_127 (VHH)
VHH: QVQLQESGGGLVQAGGSLRLSCAASGRTFSEYAMGWFRQAPGKEREFVATISWSGGAAYHTDSVKGRFTISRDNAKNTVYLQMNSLKPDDTAVYYCAAAGLGTVVSEWDYDYDYWGQGTQVTVSS
xmid (log10) [11]: 0.479
xmid (log10) [12]: -0.006

B22: vhh_tstrep_sars2_pjl1_L_130 (VHH)
VHH: QVQLQESGGGLVQAGGSLRLSCAASGRTFSEYAMGWFRQAPGKEREFVATISWSGGATYHTDSVKARFTISRDNAKNTVYLQMNSLKPDDTAVYYCAAAGLGTVVSEWDYDYDYWGQGTQVTVSS
xmid (log10) [15]: 0.204
xmid (log10) [16]: -0.532

B23: vhh_tstrep_sars2_pjl1_L_126 (VHH)
VHH: QVQLQESGGGLVQAGGSLRLSCAASGRTFSEYAMGWFRQAPGKEREFVATISWSGGASYHTDSVKGRFTISRDNAKNTVYLQMNSLKPDDTAVYYCAAAGLGTVVSEWDYDYDYWGQGTQVTVSS
xmid (log10) [15]: 0.489
xmid (log10) [12]: -0.398

B24: vhh_tstrep_sars2_pjl1_L_40 (VHH)
VHH: QVQLQESGGGLVQAGGSLRLSCAASGRTFSEYAMGWFRQAPGKEREFVATISWSGGSTYYTASVKGRFTISRDNAKNTVYLQMNSLKPDDTAVYYCAAAGLGTVVSEWDYDYDYWGQGTQVTVSS
xmid (log10) [10]: -0.664
xmid (log10) [13]: 0.226

B25: vhh_tstrep_sars2_pjl1_L_133 (VHH)
VHH: QVQLQESGGGLVQAGGSLRLSCAASGRTFSEYAMGWFRQAPGKEREFVATISWSGGATYHTDSVKGRFTISRDNAKNTVYLQMNSLKPDDTAVYYCAAAGLGTVVSEWDYDYDSWGQGTQVTVSS
xmid (log10) [14]: -1.46
xmid (log10) [9]: -1.7

B26: vhh_tstrep_sars2_pjl1_L_117 (VHH)
VHH: QVQLQESGGGLVQAGGSLRLSCAASGRTFSEYAMGWFRQAPGKEREFVATISWSGGATYHTWSVKGRFTISRDNAKNTVYLQMNSLKPDDTAVYYCAAAGLGTVVSEWDYDYDYWGQGTQVTVSS
xmid (log10) [11]: -1.7
xmid (log10) [17]: -1.5

B27: vhh_tstrep_sars2_pjl1_L_132 (VHH)
VHH: QVQLQESGGGLVQAGGSLRLSCAASGRTFSEYAMGWFRQAPGKEREFVATISWGGGATYHTDSVKGRFTISRDNAKNTVYLQMNSLKPDDTAVYYCAAAGLGTVVSEWDYDYDYWGQGTQVTVSS
xmid (log10) [8]: 0.0703
xmid (log10) [9]: -0.157
